Assay: Microsphere quality score by light microscopy (scoring system of Table 13)
Type: physicochemical
Experimental: For each of the compounds listed in A-D above, and for DAS181, cocktail solutions containing 2 mg/ml of compound dissolved in an aqueous solvent and various counterions, antisolvents and pH, as listed below, were prepared in a 96-well microtiter plate (0.1 ml cocktail/well) at room temperature. Control solutions contained either solvent or antisolvent alone, with or without the counterion. Cocktails were cooled by placing in a freezer. The chilled plates were transferred onto pre-chilled (−45° C.) shelves of a Millrock Lab Series Lyophilizer, and the vacuum was applied. The frozen cocktail solutions were allowed to lyophilize for 16 hours.
The lyophilized powders from the bottoms of the wells were transferred onto glass slides and analyzed by light microscopy for appearance. The quality of the product microspheres was scored based on the uniformity of the microspheres, the absence of undesirable non-microsphere particles (glass-like crystalline forms), and the absence of aggregates.
Arginine was used as counterion and isopropanol was used as antisolvent. Concentrations of each of the cocktail components—the compound, the counterion and the antisolvent—were varied as shown below in Table 15, and the effect on microsphere quality assessed.
Experiments were performed to evaluate the effect of antisolvent and counterion concentration variation on the formation of microspheres. The peptides leuprolide and somatostatin, and the antibiotics vancomycin and tobramycin, were tested under a variety of conditions for forming microspheres. Samples were analyzed in 96-well plates as described in the previous Examples.
The experiments were performed using PGI2 and an analog of PGI2, Ciprostene, at a concentration of 2 mg/ml. Cocktail solutions were mixed at room temperature, then cooled by placing in a freezer. The chilled plates were transferred onto pre-chilled (−45° C.) shelves of a Millrock Lab Series Lyophilizer, and the vacuum was applied. The frozen cocktail solutions were allowed to lyophilize for 16 hours.
Because the resulting prostaglandin microspheres are hygroscopic, upon microsphere initiation, the humidity was maintained at low levels during the experiments, using a nitrogen gas tank attached to the backfill system on the lyophilizer. Each of the reaction tubes was flushed with N2. In addition, the backfill valve on the lyophilizer was left open to continually flush a low humidity atmosphere over the samples. The microscope used to visualize the resulting microspheres was contained within a plastic bag that was continually purged with dry N2. Sample tubes were placed under the bag to equilibrate for approximately 30 seconds, before opening and spreading onto the glass slide.
The compound/counterion/antisolvent conditions were as follows:
Experiments were performed with 200 μl of each of the above cocktail solutions in a 2 ml lyophilization bottle (first flash freeze condition), and 25 μl of each of the above cocktail solutions in a PCR tube (second flash freeze condition). The samples in the lyophilization bottles took approximately 15 seconds to freeze. The samples in the PCR tubes took approximately 3 seconds or less to freeze.
The cocktails in the 96-well plates were cooled by placing in a freezer. The chilled plates were transferred onto pre-chilled (−45° C.) shelves of a Millrock Lab Series Lyophilizer, and a vacuum was applied. The frozen cocktail solutions were allowed to lyophilize for 16 hours.
The lyophilized powders from the bottoms of the wells were transferred onto glass slides and analyzed by light microscopy for appearance.

B1: DAS181: fusion protein: heparin (GAG) binding domain of human amphiregulin fused to a catalytic domain of Actinomyces Viscosus sialidase (SEQ ID NO:17) (protein)
chain: MGDHPQATPAPAPDASTELPASMSQAQHLAANTATDNYRIPAITTAPNGDLLISYDERPKDNGNGGSDAPNPNHIVQRRSTDGGKTWSAPTYIHQGTETGKKVGYSDPSYVVDHQTGTIFNFHVKSYDQGWGGSRGGTDPENRGIIQAEVSTSTDNGWTWTHRTITADITKDKPWTARFAASGQGIQIQHGPHAGRLVQQYTIRTAGGAVQAVSVYSDDHGKTWQAGTPIGTGMDENKVVELSDGSLMLNSRASDGSGFRKVAHSTDGGQTWSEPVSDKNLPDSVDNAQIIRAFPNAAPDDPRAKVLLLSHSPNPRPWSRDRGTISMSCDDGASWTTSKVFHEPFVGYTTIAVQSDGSIGLLSEDAHNGADYGGIWYRNFTMNWLGEQCGQKPAKRKKKGGKNGKNRRNRKKKNP
modifications: DAS181
Microsphere Quality (2 mM Na-Glutamate, 15% n-propanol, pH 4.0): 6/7
Microsphere Quality (2 mM Na-citrate, 15% isopropanol, pH 4.0): 5/6
Microsphere Quality (2 mM Na-citrate, 15% n-propanol, pH 5.0): 8/9

Source: patent publication US20190060239A1, “Technology for the Preparation of Microparticles” (Ansun Biopharma, Inc., priority 2007, published 2019)
